Experimental findings from paper PMC5497811 (Nature, 2017) are described below.

To fix the notation:
B1: BT1762 (SusD-like) with C-terminal 4xAla linker and 6xHis-tag, native from B. theta (natural protein, Bacteroides thetaiotaomicron, UniProt Q8A6W4 19-570, looked up)
chain: CDDFLDRQVPQGIVTGDQIASPEYVDNLVISAYAIWATGDDINSSFSLWNYDVRSDDCYKGGSGTEDGGVFNALEISKGINTTDWNINDIWKRLYQCITRANTALQSLDQMDEKTYPLKNQRIAEMRFLRGHAHFMLKQLFKKIVIVNDENMEPDAYNELSNTTYTNDEQWQKIADDFQFAYDNLPEVQIEKGRPAQAAAAAYLAKTYLYKAYRQDGADNALTGINEEDLKQVVKYTDPLIMAKGGYGLETDYSMNFLPQYENGAESVWAIQYSINDGTYNGNLNWGMGLTTPQILGCCDFHKPSQNLVNAFKTDSQGKPLFSTYDNENYEVATDNVDPRLFHTVGMPGFPYKYNEGYIIQKNDDWSRSKGLYGYYVSLKENVDPDCDCLKKGSYWASSLNHIVIRYADVLLMRAEALIQLNDGRITDAISLINEVRSRAAGSTMLIFNYKEDYGVNFKVTPYDLKAYAQDEAMKMLKWERRVEFGMESSRFFDLVRWGEAKDVINAYYVTEASRCSIYKNAGFTENKNEYLPVPFEQISASNGNYTQNFGW
B2: BT1763 (SusC-like), full-length, in freshly purified BT1762-1763 complex (natural protein, Bacteroides thetaiotaomicron, UniProt Q8A6W3 26-1041, looked up)
chain: GQNITVKGNVTSKTDGQPIIGASVVETTATTNGTITDFDGNFTLSVPVNSTLKITYIGYKPVTVKAAAIVNVLLEEDTQMVDEVVVTGYTTQRKADLTGAVSVVKVDEIQKQGENNPVKALQGRVPGMNITADGNPSGSATVRIRGIGTLNNNDPLYIIDGVPTKAGMHELNGNDIESIQVLKDAASASIYGSRAANGVIIITTKQGKKGQIKINFDASVSASMYQSKMNVLNTEQYGRAMWQAYVNDGENPNGNALGYAYNWGYNADGNPVLYGMTLSKYLDSKNTMPVADTDWFDEITRTGVIQQYNLSVSNGSEKGSSFFSLGYYKNLGVIKDTDFDRFSARMNSDYKLIDDILTIGQHFTLNRTSEVQAPGGIIETALDIPSAIPVYASDGSWGGPVGGWPDRRNPRAVLEYNKDNRYTYWRMFGDAYVNLTPFKGFNLRSTFGLDYANKQARYFTYPYQEGTQTNNGKSAVEAKQEHWTKWMWNAIATYQLEVGKHRGDVMIGMELNREDDSHFSGYKEDFSILTPDYMWPDAGSGTAQAYGAGEGYSLVSFFGKMNYSYADRYLLSLTLRRDGSSRFGKNHRYATFPSVSLGWRITQENFMKELTWLDDLKLRASWGQTGNQEISNLARYTIYAPNYGTTDSFGGQSYGTAYDITGSNGGGVLPSGFKRNQIGNDNIKWETTTQTNVGIDFSLFKQSLYGSLEYYYKKATDILTEMAGVGVLGEGGSRWINSGAMKNQGFEFNLGYRNKTAFGLTYDLNGNISTYRNEILELPETVAANGKFGGNGVKSVVGHTYGAQVGYIADGIFKSQDEVDNHATQEGAAVGRIRYRDIDHNGVIDERDQNWIYDPTPSFSYGLNIYLEYKNFDLTMFWQGVQGVDIISDVKKKSDFWSASNVGFLNKGTRLLNAWSPTNPNSDIPALTRSDTNNEQRVSTYFVENGSFLKLRNIQLGYTVPAVISKKMRMDRLRFYCSAQNLLTIKSKNFTGEDPENPNFSYPIPVNITFGLNIGF

The target in data set [1] is BT2264 (SusC-like TonB-dependent transporter) (Bacteroides thetaiotaomicron). Description: crystal structure.
Data set [2] has as its target B2. Description: SDS-PAGE of non-boiled samples.
The data set “native MS” concerns the molecule itself. As to the kind of experiment: native MS.

As to “BT2264 (SusC-like TonB-dependent transporter) (natural protein)”, the stoichiometry N in data set [1] was found to be 2.

In the case of B1, the binding result in data set [2] is given as “binds”.

As to B2, the “stoichiometry N” value in the data set “native MS” was 2.

What is called stoichiometry N is a count of units in the complex or per binding partner.
